In patent US20240391996A1 one finds GH-dependent Nb2 cell proliferation inhibitory activity (IC50) and IC50 data, which are given here for one substance.

pIC50: −log10 of the molar value.

In assay [1] the target is recombinant human GH (Pharmaceutical and Medical Device Regulatory Science Society of Japan) (human) (UniProt P01241). Put plainly: cell-based or functional assay.
For assay [2] the target is unchanged. As to the kind of experiment: GH-GHR binding inhibition ELISA: biotin-labeled GH (5.5 ng/mL) on captured GHR-hFc, antibody varied. Background: An ELISA detects its analyte on a solid surface through an enzyme-linked reagent.

Chain of recombinant human GH (Pharmaceutical and Medical Device Regulatory Science Society of Japan) (human) (P01241 27-217 limits assumed): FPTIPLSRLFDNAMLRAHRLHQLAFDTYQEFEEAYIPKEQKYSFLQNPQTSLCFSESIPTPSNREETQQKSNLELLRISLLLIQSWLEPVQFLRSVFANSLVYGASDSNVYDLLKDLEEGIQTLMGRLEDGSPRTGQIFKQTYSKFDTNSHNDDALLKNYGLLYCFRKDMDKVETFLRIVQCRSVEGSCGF

For “anti-GH mouse mAb (MAB1067, R&D Systems, Inc.) (antibody)”, the GH-dependent Nb2 cell proliferation inhibitory activity (IC50) in assay [1] came to 0.0215 µM. Also, the pIC50 in assay [2] is 8.16.

In general, pIC50 refers to the IC50 on a negative log10 scale, so that one unit is a factor of ten.
